# Experimental data: paper PMC2653193, “A Unique Dual Activity Amino Acid Hydroxylase in Toxoplasma gondii” (PLoS ONE, 2009)
# T1: TgAaaH1 (Toxoplasma gondii, UniProt B2L7T1)
# T1 construct: gene AaaH1; N-terminal 23 residues (predicted signal peptide) removed; N-terminal 6xHis tag (pET 45b) kept; E. coli BL21; full-length ORF 565 residues; primer text says begins at residue 23
# T1 sequence (B2L7T1 23-565): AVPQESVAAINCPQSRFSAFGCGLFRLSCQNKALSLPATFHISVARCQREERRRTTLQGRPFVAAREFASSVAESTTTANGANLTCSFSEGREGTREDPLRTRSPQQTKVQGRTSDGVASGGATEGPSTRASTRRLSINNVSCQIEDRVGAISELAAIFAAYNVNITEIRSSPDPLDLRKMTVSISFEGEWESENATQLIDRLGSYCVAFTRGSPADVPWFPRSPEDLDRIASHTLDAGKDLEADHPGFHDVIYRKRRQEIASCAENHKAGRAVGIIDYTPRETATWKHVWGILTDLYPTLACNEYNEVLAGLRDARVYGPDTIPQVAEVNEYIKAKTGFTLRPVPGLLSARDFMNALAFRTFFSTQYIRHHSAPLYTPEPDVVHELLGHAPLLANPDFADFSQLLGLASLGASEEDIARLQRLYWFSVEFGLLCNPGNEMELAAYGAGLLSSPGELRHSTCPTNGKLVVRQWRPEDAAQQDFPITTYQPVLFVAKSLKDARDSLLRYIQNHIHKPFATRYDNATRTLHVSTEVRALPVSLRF
# T2: TgAaaH2 (Toxoplasma gondii, UniProt B2L7T2)
# T2 construct: gene AaaH2; N-terminal 23 residues (predicted signal peptide) removed; N-terminal 6xHis tag (pET 45b) kept; E. coli BL21; full-length ORF 565 residues; primer text says begins at residue 23
# T2 sequence (B2L7T2 23-565): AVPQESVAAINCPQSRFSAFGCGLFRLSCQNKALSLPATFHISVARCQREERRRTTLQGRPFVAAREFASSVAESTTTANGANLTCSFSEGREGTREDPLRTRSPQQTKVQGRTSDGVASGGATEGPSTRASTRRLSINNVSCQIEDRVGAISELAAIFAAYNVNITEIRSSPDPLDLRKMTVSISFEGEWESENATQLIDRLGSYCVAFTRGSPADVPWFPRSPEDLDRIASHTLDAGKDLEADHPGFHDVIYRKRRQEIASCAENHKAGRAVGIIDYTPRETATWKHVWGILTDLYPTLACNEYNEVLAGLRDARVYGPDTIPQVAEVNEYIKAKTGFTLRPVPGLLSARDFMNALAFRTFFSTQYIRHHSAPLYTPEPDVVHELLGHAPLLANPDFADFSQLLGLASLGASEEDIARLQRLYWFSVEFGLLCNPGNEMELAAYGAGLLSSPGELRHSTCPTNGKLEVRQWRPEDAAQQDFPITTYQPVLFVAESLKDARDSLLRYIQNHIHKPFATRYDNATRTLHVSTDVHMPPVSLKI
# Assays:
# TgAaaH1 = target: T1, TgAaaH1; assay: coupled dihydropteridine reductase assay, NADH oxidation at […] nm; assay type: biochemical; details: 50 µM amino acid (tyrosine in Figure 4B), 0-500 µM 6-MPH4, 500 µM NADH, 10 µM ferrous ammonium sulphate, 50 mM HEPES, pH 7.5, 32°C; range printed jointly for both enzymes, not assigned
# TgAaaH2 = target: T2, TgAaaH2; assay: as above; assay type: biochemical; details: 50 µM amino acid (tyrosine in Figure 4B), 0-500 µM 6-MPH4, 500 µM NADH, 10 µM ferrous ammonium sulphate, 50 mM HEPES, pH 7.5, 32°C; range printed jointly for both enzymes, not assigned
# purified protein [1] = substrate: N[C@@H](Cc1ccccc1)C(=O)O; assay: purified protein; assay type: biochemical, Toxoplasma gondii; details: 500 µM 6-MPH4, 500 µM NADH, 10 µM ferrous ammonium sulphate, 50 mM HEPES, pH 7.5, 32°C, 0-200 µM phenylalanine, substrate inhibition at high concentration
# purified protein [2] = substrate: N[C@@H](Cc1ccc(O)cc1)C(=O)O; assay: purified protein; assay type: biochemical, Toxoplasma gondii; details: 500 µM 6-MPH4, 500 µM NADH, 10 µM ferrous ammonium sulphate, 50 mM HEPES, pH 7.5, 32°C, 0-200 µM tyrosine, substrate inhibition at high concentration
Molecule,Km (TgAaaH1) [µM],Km (TgAaaH2) [µM],Km (purified protein [1]) [µM],Vmax (purified protein [1]) [µmol/min/mg],Km (purified protein [2]) [µM],Vmax (purified protein [2]) [µmol/min/mg]
CC1CNc2nc(N)[nH]c(=O)c2N1 (stereo not shown) [6-MPH4],310 to 318,310 to 318,–,–,–,–
"TgAaaH1 (Toxoplasma gondii) (protein, N-terminal 23 residues (predicted signal peptide) removed; N-terminal 6xHis tag (pET 45b) kept; E. coli BL21; full-length ORF 565 residues; primer text says begins at residue 23) AVPQESVAAINCPQSRFSAFGCGLFRLSCQNKALSLPATFHISVARCQREERRRTTLQGRPFVAAREFASSVAESTTTANGANLTCSFSEGREGTREDPLRTRSPQQTKVQGRTSDGVASGGATEGPSTRASTRRLSINNVSCQIEDRVGAISELAAIFAAYNVNITEIRSSPDPLDLRKMTVSISFEGEWESENATQLIDRLGSYCVAFTRGSPADVPWFPRSPEDLDRIASHTLDAGKDLEADHPGFHDVIYRKRRQEIASCAENHKAGRAVGIIDYTPRETATWKHVWGILTDLYPTLACNEYNEVLAGLRDARVYGPDTIPQVAEVNEYIKAKTGFTLRPVPGLLSARDFMNALAFRTFFSTQYIRHHSAPLYTPEPDVVHELLGHAPLLANPDFADFSQLLGLASLGASEEDIARLQRLYWFSVEFGLLCNPGNEMELAAYGAGLLSSPGELRHSTCPTNGKLVVRQWRPEDAAQQDFPITTYQPVLFVAKSLKDARDSLLRYIQNHIHKPFATRYDNATRTLHVSTEVRALPVSLRF",–,–,2.45 ± 1.87,0.125 ± 0.015,1.25 ± 0.69,0.137 ± 0.014
"TgAaaH2 (Toxoplasma gondii) (protein, N-terminal 23 residues (predicted signal peptide) removed; N-terminal 6xHis tag (pET 45b) kept; E. coli BL21; full-length ORF 565 residues; primer text says begins at residue 23) AVPQESVAAINCPQSRFSAFGCGLFRLSCQNKALSLPATFHISVARCQREERRRTTLQGRPFVAAREFASSVAESTTTANGANLTCSFSEGREGTREDPLRTRSPQQTKVQGRTSDGVASGGATEGPSTRASTRRLSINNVSCQIEDRVGAISELAAIFAAYNVNITEIRSSPDPLDLRKMTVSISFEGEWESENATQLIDRLGSYCVAFTRGSPADVPWFPRSPEDLDRIASHTLDAGKDLEADHPGFHDVIYRKRRQEIASCAENHKAGRAVGIIDYTPRETATWKHVWGILTDLYPTLACNEYNEVLAGLRDARVYGPDTIPQVAEVNEYIKAKTGFTLRPVPGLLSARDFMNALAFRTFFSTQYIRHHSAPLYTPEPDVVHELLGHAPLLANPDFADFSQLLGLASLGASEEDIARLQRLYWFSVEFGLLCNPGNEMELAAYGAGLLSSPGELRHSTCPTNGKLEVRQWRPEDAAQQDFPITTYQPVLFVAESLKDARDSLLRYIQNHIHKPFATRYDNATRTLHVSTDVHMPPVSLKI",–,–,14.8 ± 6.4,0.145 ± 0.037,5.50 ± 3.26,0.123 ± 0.001
